This assay addresses amyloid-β (Aβ) peptide (human (endogenous in brain tissue)) (UniProt P05067). The experiment in a line: 2D-PAGE immunoblot; Aβ immunoprecipitated (4G8 and 6E10) from tris- and FA-soluble fractions of human frontal cortex, eluted in rehydration buffer (8.3 M urea, 0.5% CHAPS, 20 mM DTT), IEF pH 3-10, 4-12% Bis-Tris gel, blot with 6E10; oligomer size assigned from the band's mass. A general note: Immunoblotting shows a protein as a band on a membrane.

Where “and” joins values, the source holds several entries; their conditions need not be identical. Equal values may be shown once.

The stoichiometry N is the number of molecules, sites or subunits per partner or assembly.

As for “amyloid-β (Aβ) peptide (from UniProt P05067 672-713) (peptide; other documents disagree on this pair)”, the stoichiometry N was 5 and 6.

For the origin of these results see paper PMC8786784.
